From ChEMBL document CHEMBL1250451, “Mechanistic insights into a Ca2+-dependent family of alpha-mannosidases in a human gut symbiont” (Nat Chem Biol, 2010)

Key:
Format in all cases: protein assay
[1] = substrate: OC[C@H]1O[C@H](O[C@H]2[C@@H](O)[C@H](O)[C@@H](CO)O[C@@H]2O)[C@@H](O)[C@@H](O)[C@@H]1O; assay: (§1) Activity of Bacteroides thetaiotaomicron GH92 alpha-mannosidase 3990 E533Q mutant assessed as as mannose release after 16 hrs by HPLC relative to wild type enzyme
[2] = substrate: O=[N+]([O-])c1ccc(O[C@H]2O[C@H](CO)[C@@H](O)[C@H](O)[C@@H]2O)cc1; assay: as §1
[3] = substrate: OC[C@H]1O[C@H](O[C@H]2[C@@H](O)[C@H](O)[C@@H](CO)O[C@@H]2O)[C@@H](O)[C@@H](O)[C@@H]1O; assay: (§2) Ratio of Kcat to Km for Bacteroides thetaiotaomicron GH92 alpha-mannosidase 3990 E533Q mutant assessed as as mannose release after 16 hrs by HPLC relative to wild type enzyme
[4] = substrate: O=[N+]([O-])c1ccc(O[C@H]2O[C@H](CO)[C@@H](O)[C@H](O)[C@@H]2O)c([N+](=O)[O-])c1; assay: as §2
[5] = substrate: O=[N+]([O-])c1ccc(O[C@H]2O[C@H](CO)[C@@H](O)[C@H](O)[C@@H]2O)cc1; assay: as §2
[6] = substrate: OC[C@H]1O[C@H](O[C@H]2[C@@H](O)[C@H](O)[C@@H](CO)O[C@@H]2O)[C@@H](O)[C@@H](O)[C@@H]1O; assay: (§3) Ratio of Kcat to Km for Bacteroides thetaiotaomicron GH92 alpha-mannosidase 3990 E533A mutant assessed as as mannose release after 16 hrs by HPLC relative to wild type enzyme
[7] = substrate: O=[N+]([O-])c1ccc(O[C@H]2O[C@H](CO)[C@@H](O)[C@H](O)[C@@H]2O)c([N+](=O)[O-])c1; assay: as §3
[8] = substrate: O=[N+]([O-])c1ccc(O[C@H]2O[C@H](CO)[C@@H](O)[C@H](O)[C@@H]2O)cc1; assay: as §3
[9] = substrate: OC[C@H]1O[C@H](O[C@H]2[C@@H](O)[C@H](O)[C@@H](CO)O[C@@H]2O)[C@@H](O)[C@@H](O)[C@@H]1O; assay: (§4) Activity of Bacteroides thetaiotaomicron GH92 alpha-mannosidase 3990 E533A mutant assessed as as mannose release after 16 hrs by HPLC relative to wild type enzyme
[10] = substrate: O=[N+]([O-])c1ccc(O[C@H]2O[C@H](CO)[C@@H](O)[C@H](O)[C@@H]2O)cc1; assay: as §4
[11] = substrate: OC[C@H]1O[C@H](O[C@H]2[C@@H](O)[C@H](O)[C@@H](CO)O[C@@H]2O)[C@@H](O)[C@@H](O)[C@@H]1O; assay: (§5) Ratio of Kcat to Km for Bacteroides thetaiotaomicron GH92 alpha-mannosidase 3990 Q602A mutant assessed as as mannose release after 16 hrs by HPLC relative to wild type enzyme
[12] = substrate: O=[N+]([O-])c1ccc(O[C@H]2O[C@H](CO)[C@@H](O)[C@H](O)[C@@H]2O)c([N+](=O)[O-])c1; assay: as §5
[13] = substrate: O=[N+]([O-])c1ccc(O[C@H]2O[C@H](CO)[C@@H](O)[C@H](O)[C@@H]2O)cc1; assay: as §5
[14] = substrate: OC[C@H]1O[C@H](O[C@H]2[C@@H](O)[C@H](O)[C@@H](CO)O[C@@H]2O)[C@@H](O)[C@@H](O)[C@@H]1O; assay: (§6) Activity of Bacteroides thetaiotaomicron GH92 alpha-mannosidase 3990 Q602A mutant assessed as as mannose release after 16 hrs by HPLC relative to wild type enzyme
[15] = substrate: O=[N+]([O-])c1ccc(O[C@H]2O[C@H](CO)[C@@H](O)[C@H](O)[C@@H]2O)cc1; assay: as §6

B1: Alpha-1,2-mannosidase (BT_3990) (Bacteroides thetaiotaomicron), Q8A0N1 E533Q (protein)
chain: MKRLLLIACILNCTLLSQAKDWTQYVNPLMGSQSTFELSTGNTYPAIARPWGMNFWTPQTGKMGDGWQYTYTANKIRGFKQTHQPSPWINDYGQFSIMPIVGQPVFDEEKRASWFAHKGEVATPYYYKVYLAEHDIVTEMTPTERAVLFRFTFPENDHSYVVVDAFDKGSYIKIIPEENKIIGYTTRNSGGVPENFKNYFIIEFDKPFTYKATVENGNLQENVAEQTTDHAGAIIGFKTRKGEQVNARIASSFISFEQAAANMNELGKDNIEQLAQKGKDAWNQVLGKIEVEGGNLDQYRTFYSCLYRSLLFPRKFYELDANGQPIHYSPYNGQVLPGYMFTDTGFWDTFRCLFPLLNLMYPSVNKEMQEGLINTYLESGFFPEWASPGHRGCMVGNNSASILVDAYMKGVKVDDIKTLYEGLIHGTENVHPEVSSTGRLGYEYYNKLGYVPYDVKINENAARTLEYAYDDWCIYRLAKELKRPKKEISLFAKRAMNYKNLFDKESKLMRGRNEDGTFQSPFSPLKWGDAFTQGNSWHYTWSVFHDPQGLIDLMGGKEMFVTMMDSVFAVPPIFDDSYYGQVIHEIREMTVMNMGNYAHGNQPIQHMIYLYDYAGQPWKAQYWLRQVMDRMYTPGPDGYCGDEDNGQTSAWYVFSALGFYPVCPGTDEYVMGTPLFKKATLHFENGNSLVIDAPNNSTENFYIDSMSFNGADHTKNYLRHEDLFKGGTIKVDMSNRPNLNRGTKEEDMPYSFSKE
- Km [1]: 0.96 mM
- kcat [1]: 0.000233 s⁻¹
- Km [2]: 10 mM
- kcat [2]: 0.147 s⁻¹
- kcat/Km [3]: 0.25 M⁻¹ s⁻¹
- kcat/Km [4]: 10300 M⁻¹ s⁻¹
- kcat/Km [5]: 14.3 M⁻¹ s⁻¹

B2: Alpha-1,2-mannosidase (BT_3990) (Bacteroides thetaiotaomicron), Q8A0N1 E533A (protein)
chain: MKRLLLIACILNCTLLSQAKDWTQYVNPLMGSQSTFELSTGNTYPAIARPWGMNFWTPQTGKMGDGWQYTYTANKIRGFKQTHQPSPWINDYGQFSIMPIVGQPVFDEEKRASWFAHKGEVATPYYYKVYLAEHDIVTEMTPTERAVLFRFTFPENDHSYVVVDAFDKGSYIKIIPEENKIIGYTTRNSGGVPENFKNYFIIEFDKPFTYKATVENGNLQENVAEQTTDHAGAIIGFKTRKGEQVNARIASSFISFEQAAANMNELGKDNIEQLAQKGKDAWNQVLGKIEVEGGNLDQYRTFYSCLYRSLLFPRKFYELDANGQPIHYSPYNGQVLPGYMFTDTGFWDTFRCLFPLLNLMYPSVNKEMQEGLINTYLESGFFPEWASPGHRGCMVGNNSASILVDAYMKGVKVDDIKTLYEGLIHGTENVHPEVSSTGRLGYEYYNKLGYVPYDVKINENAARTLEYAYDDWCIYRLAKELKRPKKEISLFAKRAMNYKNLFDKESKLMRGRNEDGTFQSPFSPLKWGDAFTAGNSWHYTWSVFHDPQGLIDLMGGKEMFVTMMDSVFAVPPIFDDSYYGQVIHEIREMTVMNMGNYAHGNQPIQHMIYLYDYAGQPWKAQYWLRQVMDRMYTPGPDGYCGDEDNGQTSAWYVFSALGFYPVCPGTDEYVMGTPLFKKATLHFENGNSLVIDAPNNSTENFYIDSMSFNGADHTKNYLRHEDLFKGGTIKVDMSNRPNLNRGTKEEDMPYSFSKE
- kcat/Km [6]: 3 M⁻¹ s⁻¹
- kcat/Km [7]: 6000 M⁻¹ s⁻¹
- kcat/Km [8]: 0.35 M⁻¹ s⁻¹
- Km [9]: 1.4 mM
- kcat [9]: 0.00433 s⁻¹
- Km [10]: 9.3 mM
- kcat [10]: 0.00333 s⁻¹

B3: Alpha-1,2-mannosidase (BT_3990) (Bacteroides thetaiotaomicron), Q8A0N1 Q602A (protein)
chain: MKRLLLIACILNCTLLSQAKDWTQYVNPLMGSQSTFELSTGNTYPAIARPWGMNFWTPQTGKMGDGWQYTYTANKIRGFKQTHQPSPWINDYGQFSIMPIVGQPVFDEEKRASWFAHKGEVATPYYYKVYLAEHDIVTEMTPTERAVLFRFTFPENDHSYVVVDAFDKGSYIKIIPEENKIIGYTTRNSGGVPENFKNYFIIEFDKPFTYKATVENGNLQENVAEQTTDHAGAIIGFKTRKGEQVNARIASSFISFEQAAANMNELGKDNIEQLAQKGKDAWNQVLGKIEVEGGNLDQYRTFYSCLYRSLLFPRKFYELDANGQPIHYSPYNGQVLPGYMFTDTGFWDTFRCLFPLLNLMYPSVNKEMQEGLINTYLESGFFPEWASPGHRGCMVGNNSASILVDAYMKGVKVDDIKTLYEGLIHGTENVHPEVSSTGRLGYEYYNKLGYVPYDVKINENAARTLEYAYDDWCIYRLAKELKRPKKEISLFAKRAMNYKNLFDKESKLMRGRNEDGTFQSPFSPLKWGDAFTEGNSWHYTWSVFHDPQGLIDLMGGKEMFVTMMDSVFAVPPIFDDSYYGQVIHEIREMTVMNMGNYAHGNAPIQHMIYLYDYAGQPWKAQYWLRQVMDRMYTPGPDGYCGDEDNGQTSAWYVFSALGFYPVCPGTDEYVMGTPLFKKATLHFENGNSLVIDAPNNSTENFYIDSMSFNGADHTKNYLRHEDLFKGGTIKVDMSNRPNLNRGTKEEDMPYSFSKE
- kcat/Km [11]: 383 M⁻¹ s⁻¹
- kcat/Km [12]: 20 M⁻¹ s⁻¹
- kcat/Km [13]: 0.35 M⁻¹ s⁻¹
- Km [14]: 16 mM
- kcat [14]: 6 s⁻¹
- Km [15]: 6.6 mM
- kcat [15]: 0.00233 s⁻¹
